Reference: patent publication US20250154231A1 (RQBIO COVID, published 2025)
Read-outs that look alike come from different tables or passages of the source.

Legend:
Omicron BA.2.12.1 RBD [1] = biological target: T1, Omicron BA.2.12.1 RBD (SARS-CoV-2, UniProt P0DTC2 333-528); test: crystal structure of the ternary complex, 2.38 A
T1 construct: domain: RBD

Omicron BA.2 RBD [2] = biological target: T2, Omicron BA.2 RBD (SARS-CoV-2, UniProt P0DTC2 333-528); test: SPR, single injection of RBD over the IgG
T2 construct: domain: RBD

Omicron BA.1 RBD [3] = biological target: T3, Omicron BA.1 RBD (SARS-CoV-2, UniProt P0DTC2 333-528); test: ELISA
T3 construct: domain: RBD

Omicron BA.1 RBD [4] = biological target: T3, Omicron BA.1 RBD; test: crystal structure of the complex
Omicron BA.2 RBD [5] = biological target: T2, Omicron BA.2 RBD
Omicron BA.2.12.1 RBD [6] = biological target: T1, Omicron BA.2.12.1 RBD
Omicron BA.2 RBD [7] = biological target: T2, Omicron BA.2 RBD; remark: listed apart in the source
Omicron BA.2 RBD [8] = biological target: T2, Omicron BA.2 RBD; remark: listed apart in the source
Omicron BA.2 RBD [9] = biological target: T2, Omicron BA.2 RBD; remark: listed apart in the source
Omicron BA.2 RBD [10] = biological target: T2, Omicron BA.2 RBD; remark: listed apart in the source
Omicron BA.2.12.1 RBD [11] = biological target: T1, Omicron BA.2.12.1 RBD; remark: listed apart in the source
Omicron BA.2 RBD [12] = biological target: T2, Omicron BA.2 RBD; remark: listed apart in the source
Omicron BA.2 RBD [13] = biological target: T2, Omicron BA.2 RBD; remark: listed apart in the source

B1: Beta-27 Fab (Fab, V domains shown)
VH: EVQLLESGGGLVQPGGSLRLSCAASGLTVRSNYMNWVRQAPGKGLEWVSLIYSGGSTFYADSVKGRFTISRHDSKNTLYLQMNSLRAEDTAVYYCARDLVVYGMDVWGQGTTVTVSS
VL: DIQMTQSPGTLSLSPGERATLSCRASQSVSSSSLAWYQQKHGQAPRLLIYGTSSRATGIPDRFSGSGSGTDFTLTISGLEPEDFAVYYCQQYGSSPLFGGGTKVEIK
binding result (Omicron BA.2.12.1 RBD [1]): binds

B2: Omi36 (antibody, V domains shown)
VH: EVQLVESGGGVVQPGGSLRLSCAASGIIVSANYMTWVRQAPGKGLEWVSVIYPGGSTFYADSVKGRFTISRDNSKNTLYLQMNSLRVEDSAVYYCARDLELAGFNDYWGQGTLVTVSS
VL: DIVMTQSPGTLSLSPGERATLSCRTSQSVSSNYLAWYQQKPGQAPRLLIYGASSRATGIPDRFSGSGSGTDFTLTISRLEPEDFAVYYCQQFGSSPRYTFGQGTKVEIK
binding result (Omicron BA.2 RBD [2]): binds
binding result (Omicron BA.1 RBD [3]): binds

B3: Omi-9 Fab (Fab, V domains shown)
VH: QVQLVESGGGVVQPGRSLRLSCAASGFTFRTYAVHWVRQAPGKGPEWVAVISYDGSNKYYADSVKGRFTLSRDTSKNTLYLQMNSLRAEDTAVYYCASRGDTVTTGDAFDIWGQGTMVTVSS
VL: SYELTQPPSVSVSPGQTARITCSGDALPKQYTYWYQQKPGQPPVLVIYKDSERPSGIPERFSGSSSGTTVTLTISGVQAEDEADYYCQSTDSSATYPGNVVFGGGTKLTVL
binding result (Omicron BA.1 RBD [4]): binds

B4: Omi06 (antibody, V domains shown)
VH: EVQLLESGPGLVKPSETLSLTCTVSGGSISRYSWSWIRQPAGRGLEWIGRMYSSGGTNYNPSLESRVTMSLDTSKKQFSLKLSSVTAADTAVYYCAAASIDQVWGTYRDAFDIWGQGTMVTVSS
VL: AIRMTQSPSSLAASVGDRVTISCRAGQSISSFLHWYQQKVGKAPKLLIYDASSLQSGVPSRFSGSGSGTDFTLTISSLQPEDFAAYYCQQSYENPLTFGGGTKVDIK
Kd (Omicron BA.2 RBD [5]): 1.3 nM
T1/2 (Omicron BA.2 RBD [5]): 0.983 min
koff (Omicron BA.2 RBD [5]): 0.012 s⁻¹
kon (Omicron BA.2 RBD [5]): 9e+06 M⁻¹ s⁻¹
Kd (Omicron BA.2.12.1 RBD [6]): 19 nM

B5: Omi20 (antibody, V domains shown)
VH: EVQLVESGGGLVQPGGSLRLSCEASEITVSSNYMNWVRQAPGKGLEWVSVLFAGGTTYYADSVKGRFTISRDNSKNTLYLQMNTLRIEDTAIYYCARDLVAYGVDVWGQGTTVTVSS
VL: AIQMTQSPSFLSASVGDRVTITCRASQGISGDLAWYQQKPGKAPKLLIYAASTLQSGVPSRFSGSGSGTEFTLTISSLQPEDFATYYCQHLNSYPLTFGGGTKVEIK
Kd (Omicron BA.2 RBD [7]): 2.4 nM
T1/2 (Omicron BA.2 RBD [7]): 5.6 min
koff (Omicron BA.2 RBD [7]): 0.0021 s⁻¹
kon (Omicron BA.2 RBD [7]): 870000 M⁻¹ s⁻¹

B6: Omi03 (antibody, V domains shown)
VH: EVQLVESGGGLIQPGGSLRLSCAASEIIVSRNYMSWVRQAPGKGLEWVSVIYSGGSTFYADSVKGRFTISRDNSKNTLYLQMNSLRAEDTAVYYCARDLDVVGGTDYWGQGTLVTVSS
VL: not shown
Kd (Omicron BA.2 RBD [8]): 4.4 nM
T1/2 (Omicron BA.2 RBD [8]): 2.9 min

B7: Omi-42 Fab (Fab, V domains shown)
VH: EVQLLETGGGLVQPGRSLRLSCAASGFPFDDYAIHWVRLAPGKGLEWVSSISWDSGSIGYADSVKGRFTISRDNAKNSLYLQMNSLRAEDTALYYCAKGAFPGYSSGWYYGLDVWGQGATVTVSS
VL: QSVVTQPPSASGSLGQSVTISCTGTSSDVGGYNYVSWYQQHPGKAPKLMIFEVSKRPSGVPDRFSGSKSGNTASLTVSGLQAEDEADYYCSSYAGNKGVFGGGTKLTVL
Kd (Omicron BA.2 RBD [9]): 0.99 nM
T1/2 (Omicron BA.2 RBD [9]): 131 min
koff (Omicron BA.2 RBD [9]): 8.8e-05 s⁻¹
kon (Omicron BA.2 RBD [9]): 89000 M⁻¹ s⁻¹

B8: Omi-32 Fab (Fab, V domains shown)
VH: EVQLVESGGGVVQPGRSLRLSCAASGFTFSNYGMHWVRQAPGKGLEWVAVYWYDGGNKFYADSVKGRFTISRDNSKNTLYLQMNSLRVEDTAVYYCARDTAPPDYWGQGTLVTVSS
VL: AIRMTQSPGTLSLSPGERATLSCRASQSISSSFLAWYQQKPGQAPRLLIYGASSRATGIPDRFSGSGSGTDFTLTISRLEPEDFAVYYCQQYGTSPRLTFGGGTKVDIK
Kd (Omicron BA.2 RBD [10]): 5.9 nM
T1/2 (Omicron BA.2 RBD [10]): 71 min
koff (Omicron BA.2 RBD [10]): 0.00016 s⁻¹
kon (Omicron BA.2 RBD [10]): 27000 M⁻¹ s⁻¹

B9: Omi31 (antibody, V domains shown)
VH: EVQLVQSGAEVKKPGSSVKVSCKASGGTFSSYGISWVRQAPGLGLEWMGGVIPILSAKHYAQRFQGRVTITADKSTGTAYMELSSLRSEDTAVYYCARDILHHDDLWGRFYYDGMDVWGQGTTVTVSS
VL: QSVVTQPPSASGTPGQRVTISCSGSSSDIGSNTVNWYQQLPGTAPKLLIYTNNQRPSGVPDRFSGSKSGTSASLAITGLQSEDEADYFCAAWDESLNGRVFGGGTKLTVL
Kd (Omicron BA.2.12.1 RBD [11]): 4.1 nM
T1/2 (Omicron BA.2.12.1 RBD [11]): 0.733 min
koff (Omicron BA.2.12.1 RBD [11]): 0.016 s⁻¹
kon (Omicron BA.2.12.1 RBD [11]): 3.8e+06 M⁻¹ s⁻¹
Kd (Omicron BA.2 RBD [12]): 0.0032 nM
T1/2 (Omicron BA.2 RBD [12]): 366 min
koff (Omicron BA.2 RBD [12]): 3.1e-05 s⁻¹
kon (Omicron BA.2 RBD [12]): 9.8e+06 M⁻¹ s⁻¹

B10: Fab Beta-54 (Fab, V domains shown)
VH: QVQLQESGPGLVKPSETLSLTCTVFGGSITSSNHYWVWIRQPPGKGLEWIGSMYYSGSTAYNPSLTNRVTISVDTSKNQFSLKLSSVTAADTAVYYCARQIGPKRPSQVADWFDPWGQGTLVTVSS
VL: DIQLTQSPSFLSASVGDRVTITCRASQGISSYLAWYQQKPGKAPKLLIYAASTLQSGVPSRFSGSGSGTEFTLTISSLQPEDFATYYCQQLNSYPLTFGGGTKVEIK
Kd (Omicron BA.2 RBD [13]): 44 nM
T1/2 (Omicron BA.2 RBD [13]): 2.3 min
koff (Omicron BA.2 RBD [13]): 0.005 s⁻¹
kon (Omicron BA.2 RBD [13]): 110000 M⁻¹ s⁻¹
